{"source": "patent US20190091326A1", "key": {"[1]": {"biological_target": "ZM233 mutant + N156", "experiment": "ELISA, PG9 titrated, absorbance 490 nm"}, "[2]": {"biological_target": "ZM233 mutant - N156", "experiment": "ELISA, PG9 titrated, absorbance 490 nm"}, "[3]": {"biological_target": "MN V1/V2 scaffold, wildtype, gD-tagged, produced in normal 293 HEK cells (herpes simplex virus 1; HIV-1 isolate MN) (UniProt Q69091)", "experiment": "ELISA; table row MN V1/V2 wt, column 293"}, "[4]": {"biological_target": "MN V1/V2 scaffold, engineered, gD-tagged, produced in normal 293 HEK cells (herpes simplex virus 1; HIV-1 isolate MN)", "experiment": "ELISA; table row MN V1/V2.eng1*, column 293"}, "[5]": {"biological_target": "ZM109 V1/V2 wt (293)", "experiment": "ELISA; table row ZM109 V1/V2 wt, column 293"}, "[6]": {"biological_target": "ZM197 V1/V2 wt (293)", "experiment": "ELISA; table row ZM197 V1/V2 wt, column 293"}, "[7]": {"biological_target": "A244 V1/V2 scaffold, wildtype, gD-tagged, produced in GnTI- 293 HEK cells (herpes simplex virus 1; HIV-1 isolate A244) (UniProt Q69091)", "experiment": "ELISA; table row A244 V1/V2 wt, GnTI-"}, "[8]": {"biological_target": "CAP.45 V1/V2 wt (293)", "experiment": "ELISA; table row CAP.45 V1/V2 wt, column 293"}, "[9]": {"biological_target": "ZM197 V1/V2 wt (GnTI-)", "experiment": "ELISA; table row ZM197 V1/V2 wt, GnTI-"}, "[10]": {"biological_target": "ZM233 V1/V2 scaffold, wildtype, gD-tagged, produced in GnTI- 293 HEK cells (herpes simplex virus 1; HIV-1 isolate ZM233)", "experiment": "ELISA; table row ZM233 V1/V2 wt, GnTI-"}, "[11]": {"biological_target": "108060 I169K/E172V/T161M/N156I/S164G/D167G V1/V2 scaffold, gD-tagged, produced in normal 293 HEK cells (herpes simplex virus 1; HIV-1 isolate 108060)", "experiment": "ELISA; table row 108060 V1/V2.eng1*, column 293"}, "[12]": {"biological_target": "A244 V1/V2.eng1 (GnTI-)", "experiment": "ELISA; table row A244 V1/V2.eng1*, GnTI-"}, "[13]": {"biological_target": "ZM233 V1/V2 scaffold, engineered, gD-tagged, produced in GnTI- 293 HEK cells (herpes simplex virus 1; HIV-1 isolate ZM233)", "experiment": "ELISA; table row ZM233 V1/V2.eng1*, GnTI-"}, "[14]": {"biological_target": "108060 I169K/E172V/T161M/N156I/S164P/L165G V1/V2 scaffold, gD-tagged, produced in GnTI- 293 HEK cells (herpes simplex virus 1; HIV-1 isolate 108060)", "experiment": "ELISA; table row 108060 V1/V2.eng2**, GnTI-"}, "[15]": {"biological_target": "ZM233 V1/V2 scaffold, engineered, gD-tagged, produced in GnTI- 293 HEK cells (herpes simplex virus 1; HIV-1 isolate ZM233)", "experiment": "capture ELISA on 34.1 anti-gD; scaffold made in GnTI- cells"}, "[16]": {"biological_target": "JRFL-E168K V1/V2 scaffold, engineered, gD-tagged, produced in GnTI- 293 HEK cells (herpes simplex virus 1; HIV-1 isolate JRFL)", "experiment": "ELISA; table row JRFL-E168K V1/V2.eng1*, GnTI-"}, "[17]": {"biological_target": "108060 I169K/E172V V1/V2 scaffold, gD-tagged, produced in GnTI- 293 HEK cells (herpes simplex virus 1; HIV-1 isolate 108060)", "experiment": "ELISA; table row 108060 V1/V2 I169K/E172V, GnTI-"}, "[18]": {"biological_target": "ZM233 V1/V2 scaffold, wildtype, gD-tagged, produced in normal 293 HEK cells (herpes simplex virus 1; HIV-1 isolate ZM233)", "experiment": "capture ELISA on 34.1 anti-gD; scaffold made in normal 293 cells"}, "[19]": {"biological_target": "108060 I169K/E172V/T161M/N156I/S164P/L165G V1/V2 scaffold, gD-tagged, produced in normal 293 HEK (293F) cells (herpes simplex virus 1; HIV-1 isolate 108060)", "experiment": "capture ELISA on 34.1 anti-gD; purified scaffold made in 293F cells"}, "[20]": {"biological_target": "1209 V1/V2/V3/C3 scaffold grown in GnTI- cells", "experiment": "ELISA, mAb titrated on scaffold, absorbance 492 nm; curve 505 (1209 GNTI-)"}, "[21]": {"biological_target": "UCSC1207 V1/V2/V3 scaffold (glycosylation site moved from N334 to N332) grown in GnTI- cells (HIV-1 isolate A244 (clade CRF01-AE))", "experiment": "ELISA, mAb titrated on scaffold, absorbance 492 nm; curve 512 (1207 GNTI-)"}, "[22]": {"biological_target": "108060 V1/V2 scaffold, mutant, Strep-tag/6x Histidine-tag, expressed in 293F cells (HIV-1 isolate 108060)", "experiment": "SPR (Biacore 3000), PG9 captured by anti-human Fc, scaffold flowed, 1:1 Langmuir fit"}, "[23]": {"biological_target": "A244 V1/V2 scaffold, engineered, Strep-tag/6x Histidine-tag, produced in normal 293 cells (HIV-1 isolate A244)", "experiment": "SPR (Biacore 3000), PG9 captured by anti-human Fc, scaffold flowed, 1:1 Langmuir fit"}, "[24]": {"biological_target": "MN V1/V2 scaffold, mutant, Strep-tag/6x Histidine-tag, expressed in 293F cells (HIV-1 isolate MN) (UniProt P05877)", "experiment": "SPR (Biacore 3000), PG9 captured by anti-human Fc, scaffold flowed, 1:1 Langmuir fit"}, "[25]": {"biological_target": "ZM233 V1/V2 scaffold, engineered, Strep-tag/6x Histidine-tag, expressed in normal 293 cells (HIV-1 isolate ZM233)", "experiment": "SPR (Biacore 3000), PG9 captured by anti-human Fc, scaffold flowed, 1:1 Langmuir fit"}, "[26]": {"biological_target": "A244-rgp120 grown in GnTI- cells (HIV-1 isolate A244)", "experiment": "ELISA, mAb titrated on gp120, absorbance 492 nm; curve 495 (A244 gp120 GNTI-)"}}, "note": "pKd: −log10 of the molar value."}
{"substance": "PG9 monoclonal antibody", "values": [{"measurement": "EC50 (read off the curve)", "setting": "[1]", "value": 0.1, "unit": "µg/mL"}, {"measurement": "EC50 (read off the curve)", "setting": "[2]", "value": 0.03, "unit": "µg/mL"}, {"measurement": "EC50", "setting": "[3]", "value": "> 10", "unit": "µg/mL"}, {"measurement": "EC50", "setting": "[4]", "value": 0.0274, "unit": "µg/mL"}, {"measurement": "EC50", "setting": "[5]", "value": 0.517, "unit": "µg/mL"}, {"measurement": "EC50", "setting": "[6]", "value": 2.74, "unit": "µg/mL"}, {"measurement": "EC50", "setting": "[7]", "value": 0.000741, "unit": "µg/mL"}, {"measurement": "EC50", "setting": "[8]", "value": 0.312, "unit": "µg/mL"}, {"measurement": "EC50", "setting": "[9]", "value": 0.0303, "unit": "µg/mL"}, {"measurement": "EC50", "setting": "[10]", "value": 0.00951, "unit": "µg/mL"}, {"measurement": "EC50", "setting": "[11]", "value": 0.093, "unit": "µg/mL"}, {"measurement": "EC50", "setting": "[12]", "value": 0.00406, "unit": "µg/mL"}, {"measurement": "EC50", "setting": "[13]", "value": 0.0085, "unit": "µg/mL"}, {"measurement": "EC50", "setting": "[14]", "value": 0.00834, "unit": "µg/mL"}, {"measurement": "EC50", "setting": "[15]", "value": 0.01, "unit": "µg/mL"}, {"measurement": "EC50", "setting": "[16]", "value": 0.013, "unit": "µg/mL"}, {"measurement": "EC50", "setting": "[17]", "value": 0.113, "unit": "µg/mL"}, {"measurement": "EC50", "setting": "[18]", "value": 0.0771, "unit": "µg/mL"}, {"measurement": "EC50", "setting": "[19]", "value": 0.156, "unit": "µg/mL"}, {"measurement": "EC50", "setting": "[20]", "value": 0.14, "unit": "µg/mL"}, {"measurement": "EC50", "setting": "[21]", "value": 0.02, "unit": "µg/mL"}, {"measurement": "pKd", "setting": "[22]", "value": 7.13}, {"measurement": "pKd", "setting": "[23]", "value": 7.31}, {"measurement": "pKd", "setting": "[24]", "value": 6.93}, {"measurement": "pKd", "setting": "[25]", "value": 7.48}, {"measurement": "EC50", "setting": "[26]", "value": 0.02, "unit": "µg/mL"}]}
